According to paper PMC4825019:
Where two headings read alike, the source gives them in different places.

Assays:
[1] = target: β-synuclein (endogenous) (mouse (endogenous in C57BL/6 brain)) (UniProt Q91ZZ3); experiment: co-IP; reverse co-IP from dephosphorylated wild-type mouse brain lysate (neither heated nor dialyzed) with antibodies for synaptophysin, β-synuclein or apoA1; blot probed with Dako Tau antibody, the three Tau isoforms quantified with ImageJ
[2] = target: synaptophysin (endogenous) (mouse (endogenous in C57BL/6 brain)) (UniProt Q62277); experiment: as above
[3] = target: β-synuclein (endogenous) (mouse (endogenous in C57BL/6 brain)) (UniProt Q91ZZ3); experiment: as above; remark: listed apart in the source
[4] = target: recombinant 1N Tau (Mtau210, 1N4R, with N-terminal GST tag) (murine); experiment: ELISA; plates coated overnight at 4 °C with recombinant 0N, 1N or 2N Tau at 10 μg/ml in PBS, blocked with 3% BSA; recombinant β-synuclein and synaptophysin at 10 μg/ml in PBS for 1 h at room temperature, detected with anti-V5; recombinant apoA1 detected with an anti-apoA1 antibody; absorbance at 450 nm after subtraction of BSA-coated wells
[5] = target: recombinant 2N Tau (Mtau2310, 2N4R, with N-terminal GST tag) (murine); experiment: as above

UniProt Q62277, sequence (Q62277 whole entry): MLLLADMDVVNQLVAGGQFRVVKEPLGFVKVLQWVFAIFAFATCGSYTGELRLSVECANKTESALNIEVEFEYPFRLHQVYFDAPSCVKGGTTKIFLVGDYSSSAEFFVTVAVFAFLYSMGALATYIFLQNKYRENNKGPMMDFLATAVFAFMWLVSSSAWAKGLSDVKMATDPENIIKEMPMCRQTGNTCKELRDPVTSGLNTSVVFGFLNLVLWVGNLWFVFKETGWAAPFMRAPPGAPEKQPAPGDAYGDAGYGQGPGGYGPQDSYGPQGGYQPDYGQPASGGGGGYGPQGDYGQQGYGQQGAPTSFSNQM

1N Tau (endogenous) (natural protein)
ratio to 0N Tau (Western blot of the reverse IP) [1]: 0.897 | ratio to 0N Tau (Western blot of the reverse IP) [2]: 0.97 | ratio to 0N Tau (Western blot of the reverse IP) [3]: 0.41

2N Tau (endogenous) (natural protein)
ratio to 0N Tau (Western blot of the reverse IP) [1]: 0.5 | ratio to 0N Tau (Western blot of the reverse IP) [2]: 0.93 | ratio to 0N Tau (Western blot of the reverse IP) [3]: 0.37

recombinant β-synuclein (C-terminal His6 and V5 tag) (from UniProt Q91ZZ3 1-133) (natural protein)
ratio to 0N Tau (ELISA absorbance) [4]: 0.63 | ratio to 0N Tau (ELISA absorbance) [5]: 0.26
